Assay results as given in patent US20170190753A1 (LABORATOIRE FRANCAIS DU FRACTIONNEMENT ET DES …, published 2017).

B1: pCEP4-1NT8-16CT20 (other)
chain: EDCNELPPRRNTEILTGSWSDQTYPEGTQAIYKCRPGYRSLGNVIMVCRKGEWVALNPLRKCQKRPCGHPGDTPFGTFTLTGGNVFEYGVKAVYTCNEGYQLLGEINYRECDTDGWTNDIPICEVVKCLPVTAPENGKIVSSAMEPDREYHFGQAVRFVCNSGYKIEGDEEMHCSDDGFWSKEKPKCVEISCKSPDVINGSPISQKIIYKENERFQYKCNMGYEYSERGDAVCTESGWRPLPSCEEKSCDNPYIPNGDYSPLRIKHRTGDEITYQCRNGFYPATRGNTAKCTSTGWIPAPRCTLKPCDYPDIKHGGLYHENMRRPYFPVAVGKYYSYYCDEHFETPSGSYWDHIHCTQDGWSPAVPCLRKCYFPYLENGYNQNYGRKFVQGKSIDVACHPGYALPKAQTTVTCMENGWSPTPRCIRVKTCSKSSIDIENGFISESQYTYALKEKAKYQCKLGYVTADGETSGSITCGKDGWSAQPTCIKSGASGCKSPPEISHGVVAHMSDSYQYGEEVTYKCFEGFGIDGPAIAKCLGEKWSHPPSCIKTDCLSLPSFENAIPMGEKKDVYKAGEQVTYTCATYYKMDGASNVTCINSRWTGRPTCRDTSCVNPPTVQNAYIVSRQMSKYPSGERVRYQCRSPYEMFGDEEVMCLNGNWTEPPQCKDSTGKCGPPPPIDNGDITSFPLSVYAPASSVEYQCQNLYQLEGNKRITCRNGQWSEPPKCLHPCVISREIMENYNIALRWTAKQKLYSRTGESVEFVCKRGYRLSSRSHTLRTTCWDGKLEYPTCAKRGGSGHHHHHH
B2: pCEP4-1NT9-16CT20 (other)
chain: EDCNELPPRRNTEILTGSWSDQTYPEGTQAIYKCRPGYRSLGNVIMVCRKGEWVALNPLRKCQKRPCGHPGDTPFGTFTLTGGNVFEYGVKAVYTCNEGYQLLGEINYRECDTDGWTNDIPICEVVKCLPVTAPENGKIVSSAMEPDREYHFGQAVRFVCNSGYKIEGDEEMHCSDDGFWSKEKPKCVEISCKSPDVINGSPISQKIIYKENERFQYKCNMGYEYSERGDAVCTESGWRPLPSCEEKSCDNPYIPNGDYSPLRIKHRTGDEITYQCRNGFYPATRGNTAKCTSTGWIPAPRCTLKPCDYPDIKHGGLYHENMRRPYFPVAVGKYYSYYCDEHFETPSGSYWDHIHCTQDGWSPAVPCLRKCYFPYLENGYNQNYGRKFVQGKSIDVACHPGYALPKAQTTVTCMENGWSPTPRCIRVKTCSKSSIDIENGFISESQYTYALKEKAKYQCKLGYVTADGETSGSITCGKDGWSAQPTCIKSCDIPVFMNARTKNDFTWFKLNDTLDYECHDGYESNTGSTTGSIVCGYNGWSDLPICYEREGASGCKSPPEISHGVVAHMSDSYQYGEEVTYKCFEGFGIDGPAIAKCLGEKWSHPPSCIKTDCLSLPSFENAIPMGEKKDVYKAGEQVTYTCATYYKMDGASNVTCINSRWTGRPTCRDTSCVNPPTVQNAYIVSRQMSKYPSGERVRYQCRSPYEMFGDEEVMCLNGNWTEPPQCKDSTGKCGPPPPIDNGDITSFPLSVYAPASSVEYQCQNLYQLEGNKRITCRNGQWSEPPKCLHPCVISREIMENYNIALRWTAKQKLYSRTGESVEFVCKRGYRLSSRSHTLRTTCWDGKLEYPTCAKRGGSGHHHHHH
B3: pCEP4-1NT4-9CT20 (other)
chain: EDCNELPPRRNTEILTGSWSDQTYPEGTQAIYKCRPGYRSLGNVIMVCRKGEWVALNPLRKCQKRPCGHPGDTPFGTFTLTGGNVFEYGVKAVYTCNEGYQLLGEINYRECDTDGWTNDIPICEVVKCLPVTAPENGKIVSSAMEPDREYHFGQAVRFVCNSGYKIEGDEEMHCSDDGFWSKEKPKCVEISCKSPDVINGSPISQKIIYKENERFQYKCNMGYEYSERGDAVCTESGWRPLPSCEEKSGASGCDIPVFMNARTKNDFTWFKLNDTLDYECHDGYESNTGSTTGSIVCGYNGWSDLPICYERECELPKIDVHLVPDRKKDQYKVGEVLKFSCKPGFTIVGPNSVQCYHFGLSPDLPICKEQVQSCGPPPELLNGNVKEKTKEEYGHSEVVEYYCNPRFLMKGPNKIQCVDGEWTTLPVCIVEESTCGDIPELEHGWAQLSSPPYYYGDSVEFNCSESFTMIGHRSITCIHGVWTQLPQCVAIDKLKKCKSSNLIILEEHLKNKKEFDHNSNIRYRCRGKEGWIHTVCINGRWDPEVNCSMAQIQLCPPPPQIPNSHNMTTTLNYRDGEKVSVLCQENYLIQEGEEITCKDGRWQSIPLCVEKIPCSQPPQIEHGTINSSRSSQESYAHGTKLSYTCEGGFRISEENETTCYMGKWSSPPQCEGLPCKSPPEISHGVVAHMSDSYQYGEEVTYKCFEGFGIDGPAIAKCLGEKWSHPPSCIKTDCLSLPSFENAIPMGEKKDVYKAGEQVTYTCATYYKMDGASNVTCINSRWTGRPTCRDTSCVNPPTVQNAYIVSRQMSKYPSGERVRYQCRSPYEMFGDEEVMCLNGNWTEPPQCKDSTGKCGPPPPIDNGDITSFPLSVYAPASSVEYQCQNLYQLEGNKRITCRNGQWSEPPKCLHPCVISREIMENYNIALRWTAKQKLYSRTGESVEFVCKRGYRLSSRSHTLRTTCWDGKLEYPTCAKRGGSGHHHHHH
B4: pCEP4-1NT7-11CT20 (other)
chain: EDCNELPPRRNTEILTGSWSDQTYPEGTQAIYKCRPGYRSLGNVIMVCRKGEWVALNPLRKCQKRPCGHPGDTPFGTFTLTGGNVFEYGVKAVYTCNEGYQLLGEINYRECDTDGWTNDIPICEVVKCLPVTAPENGKIVSSAMEPDREYHFGQAVRFVCNSGYKIEGDEEMHCSDDGFWSKEKPKCVEISCKSPDVINGSPISQKIIYKENERFQYKCNMGYEYSERGDAVCTESGWRPLPSCEEKSCDNPYIPNGDYSPLRIKHRTGDEITYQCRNGFYPATRGNTAKCTSTGWIPAPRCTLKPCDYPDIKHGGLYHENMRRPYFPVAVGKYYSYYCDEHFETPSGSYWDHIHCTQDGWSPAVPCLRKCYFPYLENGYNQNYGRKFVQGKSIDVACHPGYALPKAQTTVTCMENGWSPTPRCIRVKTGASGCGPPPELLNGNVKEKTKEEYGHSEVVEYYCNPRFLMKGPNKIQCVDGEWTTLPVCIVEESTCGDIPELEHGWAQLSSPPYYYGDSVEFNCSESFTMIGHRSITCIHGVWTQLPQCVAIDKLKKCKSSNLIILEEHLKNKKEFDHNSNIRYRCRGKEGWIHTVCINGRWDPEVNCSMAQIQLCPPPPQIPNSHNMTTTLNYRDGEKVSVLCQENYLIQEGEEITCKDGRWQSIPLCVEKIPCSQPPQIEHGTINSSRSSQESYAHGTKLSYTCEGGFRISEENETTCYMGKWSSPPQCEGLPCKSPPEISHGVVAHMSDSYQYGEEVTYKCFEGFGIDGPAIAKCLGEKWSHPPSCIKTDCLSLPSFENAIPMGEKKDVYKAGEQVTYTCATYYKMDGASNVTCINSRWTGRPTCRDTSCVNPPTVQNAYIVSRQMSKYPSGERVRYQCRSPYEMFGDEEVMCLNGNWTEPPQCKDSTGKCGPPPPIDNGDITSFPLSVYAPASSVEYQCQNLYQLEGNKRITCRNGQWSEPPKCLHPCVISREIMENYNIALRWTAKQKLYSRTGESVEFVCKRGYRLSSRSHTLRTTCWDGKLEYPTCAKRGGSGHHHHHH
B5: pCEP4-1NT8-13CT20 (other)
chain: EDCNELPPRRNTEILTGSWSDQTYPEGTQAIYKCRPGYRSLGNVIMVCRKGEWVALNPLRKCQKRPCGHPGDTPFGTFTLTGGNVFEYGVKAVYTCNEGYQLLGEINYRECDTDGWTNDIPICEVVKCLPVTAPENGKIVSSAMEPDREYHFGQAVRFVCNSGYKIEGDEEMHCSDDGFWSKEKPKCVEISCKSPDVINGSPISQKIIYKENERFQYKCNMGYEYSERGDAVCTESGWRPLPSCEEKSCDNPYIPNGDYSPLRIKHRTGDEITYQCRNGFYPATRGNTAKCTSTGWIPAPRCTLKPCDYPDIKHGGLYHENMRRPYFPVAVGKYYSYYCDEHFETPSGSYWDHIHCTQDGWSPAVPCLRKCYFPYLENGYNQNHGRKFVQGKSIDVACHPGYALPKAQTTVTCMENGWSPTPRCIRVKTCSKSSIDIENGFISESQYTYALKEKAKYQCKLGYVTADGETSGSITCGKDGWSAQPTCIKSGASGCKSSNLIILEEHLKNKKEFDHNSNIRYRCRGKEGWIHTVCINGRWDPEVNCSMAQIQLCPPPPQIPNSHNMTTTLNYRDGEKVSVLCQENYLIQEGEEITCKDGRWQSIPLCVEKIPCSQPPQIEHGTINSSRSSQESYAHGTKLSYTCEGGFRISEENETTCYMGKWSSPPQCEGLPCKSPPEISHGVVAHMSDSYQYGEEVTYKCFEGFGIDGPAIAKCLGEKWSHPPSCIKTDCLSLPSFENAIPMGEKKDVYKAGEQVTYTCATYYKMDGASNVTCINSRWTGRPTCRDTSCVNPPTVQNAYIVSRQMSKYPSGERVRYQCRSPYEMFGDEEVMCLNGNWTEPPQCKDSTGKCGPPPPIDNGDITSFPLSVYAPASSVEYQCQNLYQLEGNKRITCRNGQWSEPPKCLHPCVISREIMENYNIALRWTAKQKLYSRTGESVEFVCKRGYRLSSRSHTLRTTCWDGKLEYPTCAKRGGSGHHHHHH
B6: pCEP4-1NT8-9CT20 (other)
chain: EDCNELPPRRNTEILTGSWSDQTYPEGTQAIYKCRPGYRSLGNVIMVCRKGEWVALNPLRKCQKRPCGHPGDTPFGTFTLTGGNVFEYGVKAVYTCNEGYQLLGEINYRECDTDGWTNDIPICEVVKCLPVTAPENGKIVSSAMEPDREYHFGQAVRFVCNSGYKIEGDEEMHCSDDGFWSKEKPKCVEISCKSPDVINGSPISQKIIYKENERFQYKCNMGYEYSERGDAVCTESGWRPLPSCEEKSCDNPYIPNGDYSPLRIKHRTGDEITYQCRNGFYPATRGNTAKCTSTGWIPAPRCTLKPCDYPDIKHGGLYHENMRRPYFPVAVGKYYSYYCDEHFETPSGSYWDHIHCTQDGWSPAVPCLRKCYFPYLENGYNQNYGRKFVQGKSIDVACHPGYALPKAQTTVTCMENGWSPTPRCIRVKTCSKSSIDIENGFISESQYTYALKEKAKYQCKLGYVTADGETSGSITCGKDGWSAQPTCIKSGASGCDIPVFMNARTKNDFTWFKLNDTLDYECHDGYESNTGSTTGSIVCGYNGWSDLPICYERECELPKIDVHLVPDRKKDQYKVGEVLKFSCKPGFTIVGPNSVQCYHFGLSPDLPICKEQVQSCGPPPELLNGNVKEKTKEEYGHSEVVEYYCNPRFLMKGPNKIQCVDGEWTTLPVCIVEESTCGDIPELEHGWAQLSSPPYYYGDSVEFNCSESFTMIGHRSITCIHGVWTQLPQCVAIDKLKKCKSSNLIILEEHLKNKKEFDHNSNIRYRCRGKEGWIHTVCINGRWDPEVNCSMAQIQLCPPPPQIPNSHNMTTTLNYRDGEKVSVLCQENYLIQEGEEITCKDGRWQSIPLCVEKIPCSQPPQIEHGTINSSRSSQESYAHGTKLSYTCEGGFRISEENETTCYMGKWSSPPQCEGLPCKSPPEISHGVVAHMSDSYQYGEEVTYKCFEGFGIDGPAIAKCLGEKWSHPPSCIKTDCLSLPSFENAIPMGEKKDVYKAGEQVTYTCATYYKMDGASNVTCINSRWTGRPTCRDTSCVNPPTVQNAYIVSRQMSKYPSGERVRYQCRSPYEMFGDEEVMCLNGNWTEPPQCKDSTGKCGPPPPIDNGDITSFPLSVYAPASSVEYQCQNLYQLEGNKRITCRNGQWSEPPKCLHPCVISREIMENYNIALRWTAKQKLYSRTGESVEFVCKRGYRLSSRSHTLRTTCWDGKLEYPTCAKRGGSGHHHHHH

Molecular target: C3 convertase complex (UniProt P01024 23-1663; P00751 260-764)
Sequence (P01024 23-1663, chain 1 of 2): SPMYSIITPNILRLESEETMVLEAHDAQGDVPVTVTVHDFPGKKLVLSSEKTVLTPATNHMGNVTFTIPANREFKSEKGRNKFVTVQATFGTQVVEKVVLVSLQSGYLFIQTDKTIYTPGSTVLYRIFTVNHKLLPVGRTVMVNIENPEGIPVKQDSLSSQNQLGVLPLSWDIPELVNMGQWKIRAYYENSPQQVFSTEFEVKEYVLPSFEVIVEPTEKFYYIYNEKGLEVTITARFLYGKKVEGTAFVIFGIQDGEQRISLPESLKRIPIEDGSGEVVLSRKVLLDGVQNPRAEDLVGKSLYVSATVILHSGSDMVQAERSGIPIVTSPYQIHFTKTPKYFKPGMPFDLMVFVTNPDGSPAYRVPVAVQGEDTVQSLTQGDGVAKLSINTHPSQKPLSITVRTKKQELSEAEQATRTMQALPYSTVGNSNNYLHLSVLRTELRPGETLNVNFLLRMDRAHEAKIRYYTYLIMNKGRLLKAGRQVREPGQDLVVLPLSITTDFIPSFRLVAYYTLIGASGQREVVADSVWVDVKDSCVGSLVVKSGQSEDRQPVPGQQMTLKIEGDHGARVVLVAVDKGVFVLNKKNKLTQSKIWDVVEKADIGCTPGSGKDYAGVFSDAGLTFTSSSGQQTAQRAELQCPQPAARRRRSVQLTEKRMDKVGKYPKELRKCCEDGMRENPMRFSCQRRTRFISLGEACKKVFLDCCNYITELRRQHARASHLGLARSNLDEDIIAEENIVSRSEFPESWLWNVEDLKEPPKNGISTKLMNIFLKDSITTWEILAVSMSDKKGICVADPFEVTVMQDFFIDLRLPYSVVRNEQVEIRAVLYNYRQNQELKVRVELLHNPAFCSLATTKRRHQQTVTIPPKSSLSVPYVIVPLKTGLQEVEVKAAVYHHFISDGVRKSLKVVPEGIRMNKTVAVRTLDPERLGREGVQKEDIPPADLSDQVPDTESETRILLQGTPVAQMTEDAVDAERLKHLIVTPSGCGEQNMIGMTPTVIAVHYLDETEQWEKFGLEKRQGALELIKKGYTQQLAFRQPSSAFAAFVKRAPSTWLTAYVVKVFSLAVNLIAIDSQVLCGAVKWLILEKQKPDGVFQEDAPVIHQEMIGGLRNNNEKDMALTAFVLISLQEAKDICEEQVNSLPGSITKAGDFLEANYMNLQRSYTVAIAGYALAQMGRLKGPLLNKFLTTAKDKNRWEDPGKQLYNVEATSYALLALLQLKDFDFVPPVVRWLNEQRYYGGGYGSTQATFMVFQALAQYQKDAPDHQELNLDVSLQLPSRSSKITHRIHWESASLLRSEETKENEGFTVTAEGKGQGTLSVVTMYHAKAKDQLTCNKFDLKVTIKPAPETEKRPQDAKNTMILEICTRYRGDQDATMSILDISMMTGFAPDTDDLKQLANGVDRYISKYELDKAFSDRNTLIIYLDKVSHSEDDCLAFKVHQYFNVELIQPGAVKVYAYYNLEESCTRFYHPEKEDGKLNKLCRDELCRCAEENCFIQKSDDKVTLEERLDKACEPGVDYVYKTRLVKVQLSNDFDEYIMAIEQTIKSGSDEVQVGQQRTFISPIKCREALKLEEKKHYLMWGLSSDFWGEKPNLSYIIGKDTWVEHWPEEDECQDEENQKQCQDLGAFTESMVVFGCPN
Sequence (P00751 260-764, chain 2 of 2): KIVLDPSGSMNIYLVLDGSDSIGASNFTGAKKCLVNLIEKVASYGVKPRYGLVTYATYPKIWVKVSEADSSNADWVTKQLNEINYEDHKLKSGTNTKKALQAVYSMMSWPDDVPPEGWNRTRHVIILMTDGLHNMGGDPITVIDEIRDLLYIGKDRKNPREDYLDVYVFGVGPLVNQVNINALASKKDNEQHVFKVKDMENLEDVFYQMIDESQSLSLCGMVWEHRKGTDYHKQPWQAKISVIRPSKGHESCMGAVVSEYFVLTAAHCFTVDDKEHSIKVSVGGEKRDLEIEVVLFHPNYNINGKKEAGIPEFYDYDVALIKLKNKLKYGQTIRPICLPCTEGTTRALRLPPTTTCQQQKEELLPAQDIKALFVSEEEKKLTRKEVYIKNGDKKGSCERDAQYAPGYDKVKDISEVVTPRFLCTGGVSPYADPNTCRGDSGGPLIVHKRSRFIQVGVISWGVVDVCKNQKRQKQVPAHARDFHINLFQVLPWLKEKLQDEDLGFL
Assay: cell-based or functional assay
For C3 convertase activity % of the control in this document: test concentration or dose not given here.

Binder | C3 convertase activity % of the control | C3 convertase activity IC50
B1 | 25 % of the control | 0.426 µg/mL
B2 | 25 % of the control | 0.418 µg/mL
B3 | 18 % of the control | 0.536 µg/mL
B4 | 134 % of the control | 0.265 µg/mL
B5 | 30 % of the control | 0.402 µg/mL
B6 | 27 % of the control | 0.489 µg/mL
